Data from the supplement of paper PMC7877785.
± gives the uncertainty stated by the source.

Assay: self-splicing fitness, log relative to wild type (ln ratio); higher = more splicing; Tetrahymena group I intron in knt gene, E. coli kanamycin selection, DiMSum; sequences stand for … in CUCUCU…GGAGGGAAAAGUUAUCAGGCAUGCACCUGGUAGCUAGUCUUUAAACCAAUAGAUUGCAUCGGUUUAAAAGGCAAGACCGUCAAAUUGCGGGAAAGGGGUCAACAGCCGUUCAGUACCAAGUCUCAGGGGAAACUUUGAGAUGGCCUUGCAAAGGGUAUGGUAAUAAGCUGACGGACAUGGUCCUAACCACGCAGCCAAGUCCUAAGUCAACAGAUCUUCUGUUGAUAUGGAUGCAGUUCACAGACUAAAUGUCGGUCGGGGAAGAUGUAUUCUUCUCAUAAGAUAUAGUCGGACCUCUCCUUAAUGGGAGCUAGCGGAUGAAGUGAUGCAACACUGGAGCCGCUGGGAACUAAUUUGUAUGCGAAAGUAUAUUGAUUAGUUUUGGAGUACUCGUGGUCG
In short: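 Six replicate transformations of E. coli BL21(DE3) with a pET-22b(+) library were grown overnight at 37°C or 30°C. The library randomised all eight P1ex-region intron nucleotides, the intron lying in the knt kanamycin-resistance gene, and plates were LB agar with or without 25 μg/mL kanamycin plus 100 μg/mL carbenicillin, 50 μM IPTG and 0.2% rhamnose. Pooled colonies were amplicon-sequenced on an Illumina HiSeq 2500, and fitness is the DiMSum error-weighted combination of wild-type-normalised replicate fold changes, kanamycin versus none.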

Sequence	self-splicing fitness (ln) (30 °C)	self-splicing fitness (ln) (37 °C)
CCUCAGCAAUAUUACGCGGG	-4.06 ± 0.28	-2.34 ± 0.29
UGCGAGCAAUAUUACGGACG	-1.24 ± 0.15	-1.19 ± 0.17
UUACAGCAAUAUUACGCUUA	-1.38 ± 0.11	-0.114 ± 0.1
GCCAAGCAAUAUUACGGGAG	-3.55 ± 0.19	-1.46 ± 0.13
UAGAAGCAAUAUUACGGGCU	-3.1 ± 0.23	-3.1 ± 0.26
UGAGAGCAAUAUUACGUUGA		-2.55 ± 0.24
CUUUAGCAAUAUUACGUCAA	-2.48 ± 0.35	-2.67 ± 0.38
UCAUAGCAAUAUUACGGGCG	-1.12 ± 0.096	-0.909 ± 0.12
GGGCAGCAAUAUUACGCAAA	-1.39 ± 0.099	-0.884 ± 0.11
CAUGAGCAAUAUUACGGCGA	-3.34 ± 0.31	-2.53 ± 0.25
UAGCAGCAAUAUUACGGAUC	-3.34 ± 0.21	-1.4 ± 0.2
CCGUAGCAAUAUUACGGCAC	-3.83 ± 0.42	-2.14 ± 0.26
GCGGAGCAAUAUUACGCUAU	-3.16 ± 0.36	-2.53 ± 0.49
GCCGAGCAAUAUUACGCUCC	-0.576 ± 0.44	
GCAAAGCAAUAUUACGUCAA	-3.16 ± 0.19	-2.02 ± 0.14
ACGUAGCAAUAUUACGAUGC	-3.24 ± 0.22	-1.51 ± 0.22
ACCUAGCAAUAUUACGUUCA	-1.4 ± 0.099	-1.05 ± 0.12
UCGUAGCAAUAUUACGCUAA		-1.48 ± 0.29
UACGAGCAAUAUUACGACAU	-3.899 ± 0.031	-2.47 ± 0.04
UGAAAGCAAUAUUACGGUAA	-1.02 ± 0.085	-0.765 ± 0.078
ACUAAGCAAUAUUACGAACU	-0.447 ± 0.083	0.532 ± 0.1
AGGAAGCAAUAUUACGCUGC	-3.38 ± 0.43	
UCACAGCAAUAUUACGUACG	-0.786 ± 0.093	-0.747 ± 0.1
UUCAAGCAAUAUUACGUUGU	-3.87 ± 0.19	-1.34 ± 0.12
GGAUAGCAAUAUUACGAGUG	-3.38 ± 0.22	-1.41 ± 0.14

Sequence	self-splicing fitness (ln) (30 °C)	self-splicing fitness (ln) (37 °C)
GUCAAGCAAUAUUACGCUUC	-4.61 ± 0.42	-2.4 ± 0.25
UAAUAGCAAUAUUACGUCAG	-2.58 ± 0.25	-1.56 ± 0.2
GUAUAGCAAUAUUACGAUGG	-3.43 ± 0.35	-0.958 ± 0.24
AAGUAGCAAUAUUACGCAGU		-1.76 ± 0.19
UGUGAGCAAUAUUACGUAUU	-3.12 ± 0.16	-2.63 ± 0.26
CACGAGCAAUAUUACGCUUA	-2.83 ± 0.32	-0.611 ± 0.12
GCUCAGCAAUAUUACGGUUC	-0.806 ± 0.065	0.0632 ± 0.071
AGGAAGCAAUAUUACGACAC	-1.94 ± 0.12	-1.74 ± 0.12
AUGAAGCAAUAUUACGUCUA	0.344 ± 0.094	0.623 ± 0.11
GUCUAGCAAUAUUACGGUCA	-0.592 ± 0.11	-0.44 ± 0.12
GGCCAGCAAUAUUACGUUCG	-2.66 ± 0.12	-1.75 ± 0.11
GUAUAGCAAUAUUACGCGUG	-2.13 ± 0.18	-0.201 ± 0.14
CAAUAGCAAUAUUACGCGGG	-3.11 ± 0.16	-1.75 ± 0.12
AGCCAGCAAUAUUACGGUUC	-4.47 ± 0.19	-3.66 ± 0.27
CAACAGCAAUAUUACGACCU	-1.18 ± 0.12	-0.29 ± 0.12
GCAUAGCAAUAUUACGGGCC		-1.97 ± 0.27
CUAUAGCAAUAUUACGGCGU	-4.65 ± 0.46	-2.24 ± 0.43
UUCAAGCAAUAUUACGCGGA	-2.64 ± 0.16	-2.09 ± 0.15
CUAAAGCAAUAUUACGGCUC	-3.26 ± 0.4	
CGUCAGCAAUAUUACGUACA	-0.533 ± 0.072	0.154 ± 0.087
UCCCAGCAAUAUUACGCGGC		-0.462 ± 0.4
UAUCAGCAAUAUUACGGUUU	-0.764 ± 0.062	-0.507 ± 0.07
CAGGAGCAAUAUUACGACUU	-1.48 ± 0.19	-0.618 ± 0.22
AAGUAGCAAUAUUACGCAGA	-4.11 ± 0.24	-1.54 ± 0.1
UGAAAGCAAUAUUACGAUCU	-0.256 ± 0.083	0.425 ± 0.11

Sequence	self-splicing fitness (ln) (30 °C)	self-splicing fitness (ln) (37 °C)
AAUCAGCAAUAUUACGUAUG	-0.407 ± 0.079	0.138 ± 0.11
AGAUAGCAAUAUUACGCGAG	-1.22 ± 0.1	-1.03 ± 0.1
AUGAAGCAAUAUUACGACGG	-0.0267 ± 0.085	0.216 ± 0.14
CACCAGCAAUAUUACGAGUA	-1.04 ± 0.06	-0.515 ± 0.066
AGCCAGCAAUAUUACGUGAG	-2.79 ± 0.1	-0.902 ± 0.11
GCAUAGCAAUAUUACGCAGC		-1.68 ± 0.44
GAAUAGCAAUAUUACGGUGC	-2.18 ± 0.22	-2.78 ± 0.27
AGCCAGCAAUAUUACGCGCA	-0.445 ± 0.061	0.255 ± 0.074
ACUCAGCAAUAUUACGACGA	-0.9 ± 0.087	-0.164 ± 0.11
AGUUAGCAAUAUUACGGUGG	-1.16 ± 0.18	-2.42 ± 0.27
GCAAAGCAAUAUUACGAGUG	-2.57 ± 0.097	-0.371 ± 0.092
GAAUAGCAAUAUUACGUUAC	-1.97 ± 0.13	-1.6 ± 0.21
UCACAGCAAUAUUACGGGAA	-1.98 ± 0.1	-0.945 ± 0.089
GACGAGCAAUAUUACGUUCA	-1.67 ± 0.19	-0.881 ± 0.16
CAUAAGCAAUAUUACGAUAA	-4.17 ± 0.37	-1.45 ± 0.2
GGAUAGCAAUAUUACGACAG	-4.21 ± 0.37	-2.36 ± 0.29
AAGCAGCAAUAUUACGGCGA	-0.328 ± 0.075	0.355 ± 0.094
GCCCAGCAAUAUUACGAAGG	-3.32 ± 0.14	-2.42 ± 0.21
AUCCAGCAAUAUUACGAUAC	-2.91 ± 0.23	-0.914 ± 0.15
CUUUAGCAAUAUUACGUACA	-2.89 ± 0.22	
GAGUAGCAAUAUUACGCGUG	-2.16 ± 0.08	-0.531 ± 0.089
GUCAAGCAAUAUUACGCGCU	-1.88 ± 0.092	-0.425 ± 0.087
CGCUAGCAAUAUUACGUUGA	-3.06 ± 0.17	-2.38 ± 0.14
UUGGAGCAAUAUUACGGGUA		-2.02 ± 0.23
UCUGAGCAAUAUUACGUAGG	-0.323 ± 0.087	-0.306 ± 0.13

Sequence	self-splicing fitness (ln) (30 °C)	self-splicing fitness (ln) (37 °C)
CGGUAGCAAUAUUACGGAAG	-0.936 ± 0.13	-0.67 ± 0.14
AUUAAGCAAUAUUACGGAGU	-1.69 ± 0.14	-0.962 ± 0.15
GUACAGCAAUAUUACGAUGG	-3.3 ± 0.17	-2.48 ± 0.17
CCGGAGCAAUAUUACGAGAG	-2.13 ± 0.22	-2.33 ± 0.22
GAUCAGCAAUAUUACGGCUA	-0.263 ± 0.099	0.0701 ± 0.11
UACCAGCAAUAUUACGCGCU	-3.47 ± 0.37	-1.77 ± 0.22
UCGUAGCAAUAUUACGCACU	-2.67 ± 0.11	-2.16 ± 0.11
UCCUAGCAAUAUUACGGCCG	-4.16 ± 0.42	-3.12 ± 0.37
GCGUAGCAAUAUUACGAACG	-2.48 ± 0.29	-1.79 ± 0.27
UCCAAGCAAUAUUACGAGGC	-3.67 ± 0.23	-2.26 ± 0.22
GAUCAGCAAUAUUACGAAGC	-1.74 ± 0.078	-0.845 ± 0.086
UAAAAGCAAUAUUACGUGUC	-3.12 ± 0.25	-2.5 ± 0.2
AACUAGCAAUAUUACGUUGU	-3.51 ± 0.13	-2.29 ± 0.12
UCGAAGCAAUAUUACGUCAC	-2.21 ± 0.12	-2.69 ± 0.27
ACCCAGCAAUAUUACGCUGG	-2.83 ± 0.14	-2.4 ± 0.18
ACCAAGCAAUAUUACGCGUA	-1.11 ± 0.075	-0.487 ± 0.075
CGGUAGCAAUAUUACGCCGG	-1.45 ± 0.078	-0.573 ± 0.12
UUGAAGCAAUAUUACGUGGC	-3.36 ± 0.2	-1.66 ± 0.22
CCGCAGCAAUAUUACGGGAA	-4.03 ± 0.28	-2.71 ± 0.23
AUUAAGCAAUAUUACGGCGC	-0.47 ± 0.15	0.103 ± 0.17
CAAGAGCAAUAUUACGUGAU	-3.6 ± 0.21	-2.34 ± 0.22
GGUAAGCAAUAUUACGUUUA	-2.68 ± 0.17	-0.278 ± 0.11
UCUCAGCAAUAUUACGCGUU	-2.55 ± 0.14	-1.55 ± 0.17
